In assay [1] the target is T1, サバイビンとカルモジュリンとの融合タンパク質 (catalogue no. SUR0801, ATGen) (Homo sapiens (Human), UniProt O15392 1-142, fluorescein-labelled when used as prey in the pull-down).
T1 construct: Bought fusion protein; Fluorescein-labelled in the pull-down; unlabelled and captured through biotin-CBP on the SA chip in the Biacore run; also called 融合タンパク質200; survivin-calmodulin fusion protein
The assay is described as follows: SPR, Biacore X100, fusion captured through biotin-CBP on SA chip, VHH 6.25-100 nM as analyte, single cycle. (In general: In SPR one partner is held on a chip, and binding of the other changes the refractive index at the surface.)

Assay [2] deals with T2, サバイビン (antigen of the competitive ELISA) (UniProt O15392 1-142).
T2 construct: also called サバイビン1010; 抗原
Put plainly: competitive ELISA: fixed VHH equilibrated with varied survivin, free VHH caught on antigen-coated plate, anti-His detection. For orientation: An ELISA detects its analyte on a solid surface through an enzyme-linked reagent.

Assay [3] has as its target カルモジュリン (UniProt P0DP23 2-149). Put plainly: pull-down with bead-bound VHH, fluorescein-labelled prey, SDS-PAGE.

From patent JP2017014112A (dated 2017) come the findings set out here.

Changes are numbered by the printed parent chain.

T1 sequence (O15392 whole entry, the tested form may be a part): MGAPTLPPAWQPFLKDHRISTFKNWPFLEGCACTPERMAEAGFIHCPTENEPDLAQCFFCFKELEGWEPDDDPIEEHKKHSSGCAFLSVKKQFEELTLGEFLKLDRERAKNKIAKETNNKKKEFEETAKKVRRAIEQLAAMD
T2 sequence (O15392 whole entry): as the sequence (O15392 whole entry, the tested form may be a part) above

B1: 精製したVHH抗体(R7-A), C-terminal His×6, secreted from Brevibacillus (VHH)
VHH: EVQLVESGGGSVQAGGSLRLSCAASGVSNTDMIMIWFRQAPGKEREGVLAAIYKNSTYYADSVKGRFTISQDNAKNTVYLQMNSLKPEDTAIYYCAAIRAVIGRHIRPHIYWGQGTQVTVGG
notes: Expressed with the Brevibacillus secretion system and purified on Ni Sepharose
Regarding B1, the Kd in assay [1] is 25.1 nM; in assay [2], 516 nM.

B2: R7-AのDNA断片にコードされるVHH抗体 (cell-free translated, on the nucleic acid linker) (VHH)
VHH: B1 VHH
modifications: C-terminus covalently bound to the puromycin of the nucleic acid linker (linker carries biotin and fluorescein)
notes: Made in rabbit reticulocyte lysate and held on streptavidin magnetic beads through the linker for the pull-down; also called VHH抗体タンパク質120
As for B2, in assay [3], the binding result was “no binding (tested: 200 nM)”.

B3: R7-EのDNA断片にコードされるVHH抗体 (VHH)
VHH: B1 VHH with I92V, R99S
modifications: C-terminus covalently bound to the puromycin of the nucleic acid linker (linker carries biotin and fluorescein)
notes: Cell-free translated, on the nucleic acid linker, as bait in the pull-down
For the molecule B3, the binding result in assay [3] is “no binding (tested: 500 nM in the protein mix)”.

B4: R7-DのDNA断片にコードされるVHH抗体 (VHH)
VHH: B1 VHH with R99A, A100F, V101N, I102G, G103H, R104N, I106P, R107I, P108L, H109T
modifications: C-terminus covalently bound to the puromycin of the nucleic acid linker (linker carries biotin and fluorescein)
notes: as for B3
Regarding B4, the binding result in assay [3] is on record as “no binding (tested: 500 nM in the protein mix)”.

B5: R7-BのDNA断片にコードされるVHH抗体 (VHH)
VHH: EVQLVESGGGSVQAGGSLRLSCAASGIPIQDSVVLWFRQAPGKEREGVLAAKYRSPTYYADSVKGRFTISQDNAKNTVYLQMNSLKPEDTAIYYCAAIRAVIGRHIRPHIYWGQGTQVTVGG
modifications: C-terminus covalently bound to the puromycin of the nucleic acid linker (linker carries biotin and fluorescein)
notes: as for B3
With B5, the binding result in assay [3] was “no binding (tested: 200 nM alone; 500 nM in the protein mix)”.

The Kd is the constant that tells how readily two partners part at equilibrium.
